Data as given in the supplement of paper PMC11865577.

How the values were obtained:
Experiment in all cases: pull-down binding Z-score (relative to library population); higher = stronger binding
[1] = system: TO-3-N3 (biotin conjugate); details: RNA library: Library-2
In short: (§1)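 To score binding, a beads-only signal was subtracted, barcoded replicate probes were averaged with the highest and lowest dropped, and the value was converted to a Z-score using the library mean and standard deviation. The input was 1 μg of Cy5- or Cy3-end-labelled RNA library, heat-folded in phosphate/NaCl/KCl buffer and mixed for 60 min at 25 °C with streptavidin beads carrying 100 pmol of biotin-conjugated small molecule. Bound RNA was eluted in hot SDS and hybridised to a DNA barcode microarray at 55.5 °C for 20 h.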

[2] = system: G-clamp-N3 (biotin conjugate); details: RNA library: Library-1 (pre-miRNA loops + repeats)
In short: as §1

[3] = system: TO-3-N3-2 (biotin conjugate); details: RNA library: Library-2
In short: as §1

[4] = system: TO-N3-2 (biotin conjugate); details: RNA library: Library-2
In short: as §1

TO-N3 (biotin conjugate) = details: RNA library: Library-2
In short: as §1

AAAACUUUCAUCCAAGUCAUU [hsa-mir-378d-2]
pull-down binding Z-score [1]: 0.382 | pull-down binding Z-score [2]: -0.902 | pull-down binding Z-score [3]: -0.238 | pull-down binding Z-score [4]: -0.609 | pull-down binding Z-score (TO-N3 (biotin conjugate)): 0.164

AAAAUGUUUGUCAUAAACCGUUUU [hsa-mir-335]
pull-down binding Z-score [1]: -0.185 | pull-down binding Z-score [2]: -0.914 | pull-down binding Z-score [3]: -0.302 | pull-down binding Z-score [4]: -0.934 | pull-down binding Z-score (TO-N3 (biotin conjugate)): -0.158

AAAAUUACUUUUGGUAAAUACAGUUUU [hsa-mir-559]
pull-down binding Z-score [1]: -0.101 | pull-down binding Z-score [2]: -0.546 | pull-down binding Z-score [3]: 0.00825 | pull-down binding Z-score [4]: -1.04 | pull-down binding Z-score (TO-N3 (biotin conjugate)): -0.344

AAAAUUCAUGGCCUACAGCUGCCUCUUGCCAAACUGCACUGGAUUUU [hsa-mir-5010]
pull-down binding Z-score [1]: -0.25 | pull-down binding Z-score [2]: -1.45 | pull-down binding Z-score [3]: -0.176 | pull-down binding Z-score [4]: 0.111 | pull-down binding Z-score (TO-N3 (biotin conjugate)): -0.482

AAACGUGCUCAGUGUCUUUAUAACAGGAAAGCCGUAAAC [hsa-mir-1272]
pull-down binding Z-score [1]: 0.0446 | pull-down binding Z-score [2]: -0.626 | pull-down binding Z-score [3]: 0.284 | pull-down binding Z-score [4]: 0.894 | pull-down binding Z-score (TO-N3 (biotin conjugate)): 0.528

CACGGUGUCUGCGGGAGGAGACCAUG [hsa-mir-4757]
pull-down binding Z-score [1]: 0.515 | pull-down binding Z-score [2]: -0.814 | pull-down binding Z-score [4]: 0.821 | pull-down binding Z-score (TO-N3 (biotin conjugate)): 0.828

CACGUGCUGCUUGUAUAGACAUGAG [hsa-mir-3659]
pull-down binding Z-score [1]: 0.88 | pull-down binding Z-score [2]: 0.468 | pull-down binding Z-score [4]: 0.528 | pull-down binding Z-score (TO-N3 (biotin conjugate)): 1.11

CGCCCGACUUCGGGG [hsa-mir-4767]
pull-down binding Z-score [1]: -0.34 | pull-down binding Z-score [2]: 0.767 | pull-down binding Z-score [4]: 0.0319 | pull-down binding Z-score (TO-N3 (biotin conjugate)): -0.314

GACAUUGCCAGAGGAUGGGCAGCAGAC [hsa-mir-6855]
pull-down binding Z-score [2]: 2 | pull-down binding Z-score [3]: 0.334 | pull-down binding Z-score [4]: 1.17 | pull-down binding Z-score (TO-N3 (biotin conjugate)): 0.788

GGACCAGCCCAAAGGCCAGGCCUGACCC [hsa-mir-4780]
pull-down binding Z-score [1]: 0.125 | pull-down binding Z-score [2]: -0.253 | pull-down binding Z-score [3]: 0.11 | pull-down binding Z-score [4]: 1.62

GUACUGGGUCUCUCUGGUUAGACCAGAUCUGAGCCUGGGAGCUCUCUGGCUAACUAGGGAACCCACUGC [HIV_2014_Siegfried_nucs_8982_9173_4]
pull-down binding Z-score [2]: 0.055

GUCUCUCUGGUUAGACCAGAUCUGAGCCUGGGAGCUCUCUGGCUAACUAGGGAAC [HIV_2014_Siegfried_nucs_1_753_1]
pull-down binding Z-score [2]: -0.404

GUGGAAGUGCCCACUGGUUCCA [hsa-mir-194-2]
pull-down binding Z-score [1]: 0.425 | pull-down binding Z-score [2]: -0.472 | pull-down binding Z-score [3]: 0.341 | pull-down binding Z-score [4]: 1.32

UCAUUUUCCUUAAAAAAUGA [hsa-mir-3128]
pull-down binding Z-score [1]: -0.529 | pull-down binding Z-score [2]: -1.07 | pull-down binding Z-score [3]: -0.469 | pull-down binding Z-score (TO-N3 (biotin conjugate)): -1.09

UGGGGUUGGGGUUGGGGUUGGGGUUGGGGUUGGGGU [G4_(UGGGGU)6]
pull-down binding Z-score [2]: 1.14

UGGGGUUGGGGUUGGGGUUGGGGUUGGGGUUGGGGUUGGGGUUGGGGU [G4_(UGGGGU)8]
pull-down binding Z-score [2]: 1.45

UGGGUUGGGUUGGGUUGGGUUGGGUUGGGU [G4_(UGGGU)6]
pull-down binding Z-score [2]: 1.62

UGGGUUGGGUUGGGUUGGGUUGGGUUGGGUUGGGUUGGGU [G4_(UGGGU)8]
pull-down binding Z-score [2]: 0.596

UGGUUGGUUGGUUGGUUGGUUGGU [G4_(UGGU)6]
pull-down binding Z-score [2]: 1.53

UGGUUGGUUGGUUGGUUGGUUGGUUGGUUGGU [G4_(UGGU)8]
pull-down binding Z-score [2]: 0.443

UGUCUUUCGAUCAAAACCUGGAUUAUCAAAUAGGAUACAUCUGCAGUGGGGUUUUCGGUGACAACCCGCGUCCCGAAGAUGGAACAGGCA
pull-down binding Z-score [1]: -0.887 | pull-down binding Z-score [3]: -0.424 | pull-down binding Z-score [4]: 0.432 | pull-down binding Z-score (TO-N3 (biotin conjugate)): -0.552

UGUGACCUUCAAAAUUAUGGUGAUAGUGCAACAUUACCUAAAGGCAUAAUGAUGAAUGUCGCA
pull-down binding Z-score [1]: -0.431 | pull-down binding Z-score [3]: -0.486 | pull-down binding Z-score [4]: -1.05 | pull-down binding Z-score (TO-N3 (biotin conjugate)): -0.621

UGUGACUGGACA [SHAPE_invivo_SARS-CoV-2_Motif_313]
pull-down binding Z-score [1]: 0.86 | pull-down binding Z-score [3]: -0.233 | pull-down binding Z-score [4]: -0.14 | pull-down binding Z-score (TO-N3 (biotin conjugate)): 0.774

UGUGAUUUUAAUAGCUUCUUAGGAGAAUGACA [SHAPE_invivo_SARS-CoV-2_Motif_573]
pull-down binding Z-score [1]: -0.571 | pull-down binding Z-score [3]: -0.182 | pull-down binding Z-score [4]: -0.333 | pull-down binding Z-score (TO-N3 (biotin conjugate)): -0.641

UGUGCUUGUGAAAUUGUCGGUGGACAAAUUGUCACCUGUGCA
pull-down binding Z-score [1]: -0.722 | pull-down binding Z-score [3]: -0.27 | pull-down binding Z-score [4]: -0.816 | pull-down binding Z-score (TO-N3 (biotin conjugate)): -0.833

UGUGGAAAGGGCUAUCAUCUUAUGUCCUUCCCUCA [DMSMaPseq_invitro_SARS-CoV-2_Motif_440]
pull-down binding Z-score [1]: -0.089 | pull-down binding Z-score [3]: -0.0817 | pull-down binding Z-score [4]: -0.837 | pull-down binding Z-score (TO-N3 (biotin conjugate)): -0.154

UGUGGACAAGGGCCUUGUCUUAGACAGUCACU [hsa-mir-4318]
pull-down binding Z-score [1]: 0.603 | pull-down binding Z-score [2]: -0.432 | pull-down binding Z-score [3]: 0.359 | pull-down binding Z-score (TO-N3 (biotin conjugate)): 0.983

UGUGGACAUGUCAAUGACAUAUGGACAACAGUUUGGUCCAACUUAUUUGGAUGGAGCUGAUGUUACUAAAAUAAAACCUCAUAAUUCACA
pull-down binding Z-score [1]: -0.618 | pull-down binding Z-score [3]: -0.162 | pull-down binding Z-score [4]: -0.453 | pull-down binding Z-score (TO-N3 (biotin conjugate)): -0.544

UGUGGUAAACAAGCUACA
pull-down binding Z-score [1]: -0.644 | pull-down binding Z-score [3]: -0.468 | pull-down binding Z-score [4]: -0.906 | pull-down binding Z-score (TO-N3 (biotin conjugate)): -0.766
